In the assay the target is DrMoaE (MoaE of Deinococcus radiodurans, large subunit of MPT synthase) (Deinococcus radiodurans). Kind of assay: SEC; gel filtration profiles of DrMoaE and DrMoaER110A; standard curve from aprotinin, RNaseA, chymotrypsinogen A, ovalbumin and BSA.

By stoichiometry N is commonly meant a count of units in the complex or per binding partner. As for “DrMoaE (MoaE of Deinococcus radiodurans, large subunit of MPT synthase) (natural protein)”, the stoichiometry N came out at 2.
